Data published in paper PMC4339892, “Neuropilin 1 is an entry factor that promotes EBV infection of nasopharyngeal epithelial cells” (Nature Communications, 2015).

Legend:
[1] = biological target: the molecule itself; assay: cross-linking; DSS cross-linking of gB-overexpressing cells, western blotting of the natural form of gB^23–431
[2] = biological target: T1, GST-NRP1^ABC (soluble extracellular ABC domain of NRP1) (human, UniProt O14786-1 30-862); assay: ELISA; plates coated with 200 ng purified FLAG-gB^23–431, various concentrations of GST-NRP1 or GST-NRP2 for 2 h at RT, rabbit anti-GST and HRP-conjugated secondary antibody; apparent affinity constant; details: both partners purified
T1 construct: neuropilin 1 residues 30-862 (extracellular ABC domain), amplified from pMSCV-NRP1, in pGEX-6p-1; also called pGEX-NRP1^ABC; pGEX-GST-NRP1^ABC; source: E. coli Rosetta, purified (Glutathione agarose)
T1 sequence: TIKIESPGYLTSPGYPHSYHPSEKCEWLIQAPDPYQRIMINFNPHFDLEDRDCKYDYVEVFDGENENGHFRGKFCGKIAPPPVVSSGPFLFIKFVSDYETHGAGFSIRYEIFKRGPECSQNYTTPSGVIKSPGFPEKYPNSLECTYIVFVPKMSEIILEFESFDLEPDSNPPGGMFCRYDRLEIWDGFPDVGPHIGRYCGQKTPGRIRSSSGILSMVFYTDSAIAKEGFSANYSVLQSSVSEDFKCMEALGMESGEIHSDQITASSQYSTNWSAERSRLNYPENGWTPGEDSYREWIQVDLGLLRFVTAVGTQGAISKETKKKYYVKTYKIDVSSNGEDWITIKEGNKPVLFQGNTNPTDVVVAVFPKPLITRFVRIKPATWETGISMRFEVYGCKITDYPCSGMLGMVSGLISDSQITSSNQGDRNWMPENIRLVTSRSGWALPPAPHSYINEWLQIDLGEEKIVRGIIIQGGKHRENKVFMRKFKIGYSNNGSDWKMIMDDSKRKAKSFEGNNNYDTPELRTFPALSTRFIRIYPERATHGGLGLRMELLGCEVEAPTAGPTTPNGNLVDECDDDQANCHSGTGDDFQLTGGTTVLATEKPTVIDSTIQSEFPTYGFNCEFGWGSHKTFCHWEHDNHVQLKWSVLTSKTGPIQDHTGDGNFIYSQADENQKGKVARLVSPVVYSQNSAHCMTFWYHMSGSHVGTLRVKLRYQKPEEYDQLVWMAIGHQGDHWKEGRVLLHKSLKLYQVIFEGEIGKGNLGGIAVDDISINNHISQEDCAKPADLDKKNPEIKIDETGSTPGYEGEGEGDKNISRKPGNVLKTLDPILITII

B1: FLAG-gB^23–431 (EBV glycoprotein B residues 23-431, CendR motif exposed) (domain or fragment)
chain: QTPEQPAPPATTVQPTATRQQTSFPFRVCELSSHGDLFRFSSDIQCPSFGTRENHTEGLLMVFKDNIIPYSFKVRSYTKIVTNILIYNGWYADSVTNRHEEKFSVDSYETDQMDTIYQCYNAVKMTKDGLTRVYVDRDGVNITVNLKPTGGLANGVRRYASQTELYDAPGWLIWTYRTRTTVNCLITDMMAKSNSPFDFFVTTTGQTVEMSPFYDGKNKETFHERADSFHVRTNYKIVDYDNRGTNPQGERRAFLDKGTYTLSWKLENRTAYCPLQHWQTFDSTIATETGKSIHFVTDEGTSSFVTNTTVGIELPDAFKCIEEQVNKTMHEKYEAVQDRYTKGQEAITYFITSGGLLLAWLPLTPRSLATVKNLTELTTPTSSPPSSPSPPAPSAARGSTPAAVLRRRR
notes: Epstein-Barr virus glycoprotein B (gB), residues 23-431, amplified from the gB expression plasmid p2670; ends with the CendR motif 428-431 (furin cleavage site); Secreted into the supernatant; the signal peptide of the vector is not described; also called EBV-gB^23–431; pCEP-his-FLAG-gB^23–431; source: HEK-293FT, transfected, in lysate (co-IP; M2 beads for the pull-down)
[1]
  stoichiometry N: 3
[2]
  binding result: binds
